Measured values taken from IntAct's records for PubMed 15604664.

B1: Floral homeotic protein … (Arabidopsis thaliana (Mouse-ear cress)), P48007 (parent)
chain: MGRGKIEIKRIENANNRVVTFSKRRNGLVKKAKEITVLCDAKVALIIFASNGKMIDYCCPSMDLGAMLDQYQKLSGKKLWDAKHENLSNEIDRIKKENDSLQLELRHLKGEDIQSLNLKNLMAVEHAIEHGLDKVRDHQMEILISKRRNEKMMAEEQRQLTFQLQQQEMAIASNARGMMMRDHDGQFGYRVQPIQPNLQEKIMSLVID
partner: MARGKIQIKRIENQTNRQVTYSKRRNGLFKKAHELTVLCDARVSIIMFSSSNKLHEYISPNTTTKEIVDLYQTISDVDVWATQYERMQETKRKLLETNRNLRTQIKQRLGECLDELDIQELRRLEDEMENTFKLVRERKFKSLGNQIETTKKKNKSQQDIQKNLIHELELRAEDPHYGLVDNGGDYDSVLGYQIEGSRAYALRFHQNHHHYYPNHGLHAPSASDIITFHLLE
B2: Floral homeotic protein … (Arabidopsis thaliana (Mouse-ear cress)), P48007 (parent)
chain: B1 chain
B3: Developmental protein … 3 (Arabidopsis thaliana (Mouse-ear cress)), O22456 (parent)
chain: MGRGRVELKRIENKINRQVTFAKRRNGLLKKAYELSVLCDAEVALIIFSNRGKLYEFCSSSSMLRTLERYQKCNYGAPEPNVPSREALAVELSSQQEYLKLKERYDALQRTQRNLLGEDLGPLSTKELESLERQLDSSLKQIRALRTQFMLDQLNDLQSKERMLTETNKTLRLRLADGYQMPLQLNPNQEEVDHYGRHHHQQQQHSQAFFQPLECEPILQIGYQGQQDGMGAGPSVNNYMLGWLPYDTNSI
partner: B1 chain

Variants of: B1
Conditions: with ap3_arath AP3, P35632
L143P was tested, and the “effect of a mutation on the interaction” value was “decreasing interaction”.
I142P was tested, and the “effect of a mutation on the interaction” value was “decreasing interaction”.
In the case of V135A, the “effect of a mutation on the interaction” value is reported as “decreasing interaction”.
For Q102P, the “effect of a mutation on the interaction” value was “decreasing interaction”.
With A127P the “effect of a mutation on the interaction” value was “decreasing interaction”.
In the case of L103P, the “effect of a mutation on the interaction” value is reported as “decreasing interaction”.
In the case of L87P, the “effect of a mutation on the interaction” value is reported as “decreasing interaction”.
L105H was tested, and the “effect of a mutation on the interaction” value was “decreasing interaction”.
L160P was tested, and the “effect of a mutation on the interaction” value was “increasing interaction”.
M153P was tested, and the “effect of a mutation on the interaction” value was “decreasing interaction”.
With L132P the “effect of a mutation on the interaction” value was “decreasing interaction”.
In the case of G177P, the “effect of a mutation on the interaction” value is reported as “increasing interaction”.
In the case of L116P, the “effect of a mutation on the interaction” value is reported as “decreasing interaction”.
For L116R, the “effect of a mutation on the interaction” value was “decreasing interaction”.
L121P was tested, and the “effect of a mutation on the interaction” value was “decreasing interaction”.
L121A was tested, and the “effect of a mutation on the interaction” value was “decreasing interaction”.
S145P was tested, and the “effect of a mutation on the interaction” value was “decreasing interaction”.
L108S was tested, and the “effect of a mutation on the interaction” value was “decreasing interaction”.
In the case of N98D, the “effect of a mutation on the interaction” value is reported as “decreasing interaction”.
For L101A, the “effect of a mutation on the interaction” value was “decreasing interaction”.
For Q167P, the “effect of a mutation on the interaction” value was “increasing interaction”.
N149P was tested, and the “effect of a mutation on the interaction” value was “increasing interaction”.
For I94T, the “effect of a mutation on the interaction” value was “decreasing interaction”.
I91T was tested, and the “effect of a mutation on the interaction” value was “decreasing interaction”.
In the case of V124D, the “effect of a mutation on the interaction” value is reported as “decreasing interaction”.
With G131P the “effect of a mutation on the interaction” value was “decreasing interaction”.
G131V was tested, and the “effect of a mutation on the interaction” value was “decreasing interaction”.
A154P was tested, and the “effect of a mutation on the interaction” value was “decreasing interaction”.
G110P was tested, and the “effect of a mutation on the interaction” value was “decreasing interaction”.
With G110A the “effect of a mutation on the interaction” value was “decreasing interaction”.
For I128T, the “effect of a mutation on the interaction” value was “decreasing interaction”.

Variants of: B2
Conditions: with sep3_arath SEP3, O22456
For A154P;Q157E;F162L, the “effect of a mutation on the interaction” value was “decreasing interaction”.
With E129D the “effect of a mutation on the interaction” value was “decreasing interaction”.
With F162L;M203T the “effect of a mutation on the interaction” value was “decreasing interaction”.
With I128V the “effect of a mutation on the interaction” value was “decreasing interaction”.
In the case of I128F, the “effect of a mutation on the interaction” value is reported as “decreasing interaction”.
L143P was tested, and the “effect of a mutation on the interaction” value was “decreasing interaction”.
In the case of K151E, the “effect of a mutation on the interaction” value is reported as “decreasing interaction”.
In the case of R158Q;E168V, the “effect of a mutation on the interaction” value is reported as “decreasing interaction”.
In the case of E129K;L132P, the “effect of a mutation on the interaction” value is reported as “decreasing interaction”.
L164Q was tested, and the “effect of a mutation on the interaction” value was “decreasing interaction”.
P193L was tested, and the “effect of a mutation on the interaction” value was “decreasing interaction”.
For A127P, the “effect of a mutation on the interaction” value was “decreasing interaction”.
With E141R;P193L the “effect of a mutation on the interaction” value was “decreasing interaction”.
In the case of I142F, the “effect of a mutation on the interaction” value is reported as “decreasing interaction”.

Variants of: B3
Conditions: with pist_arath PI, P48007
With R146E the “effect of a mutation on the interaction” value was “decreasing interaction”.
